Experimental findings from patent publication US20030049259A1 are described below.

The experiment has as its target E-cadherin (human) (UniProt P12830). The experiment in a line: cell-based or functional assay.
Chain of UniProt P12830 (P12830 155-882): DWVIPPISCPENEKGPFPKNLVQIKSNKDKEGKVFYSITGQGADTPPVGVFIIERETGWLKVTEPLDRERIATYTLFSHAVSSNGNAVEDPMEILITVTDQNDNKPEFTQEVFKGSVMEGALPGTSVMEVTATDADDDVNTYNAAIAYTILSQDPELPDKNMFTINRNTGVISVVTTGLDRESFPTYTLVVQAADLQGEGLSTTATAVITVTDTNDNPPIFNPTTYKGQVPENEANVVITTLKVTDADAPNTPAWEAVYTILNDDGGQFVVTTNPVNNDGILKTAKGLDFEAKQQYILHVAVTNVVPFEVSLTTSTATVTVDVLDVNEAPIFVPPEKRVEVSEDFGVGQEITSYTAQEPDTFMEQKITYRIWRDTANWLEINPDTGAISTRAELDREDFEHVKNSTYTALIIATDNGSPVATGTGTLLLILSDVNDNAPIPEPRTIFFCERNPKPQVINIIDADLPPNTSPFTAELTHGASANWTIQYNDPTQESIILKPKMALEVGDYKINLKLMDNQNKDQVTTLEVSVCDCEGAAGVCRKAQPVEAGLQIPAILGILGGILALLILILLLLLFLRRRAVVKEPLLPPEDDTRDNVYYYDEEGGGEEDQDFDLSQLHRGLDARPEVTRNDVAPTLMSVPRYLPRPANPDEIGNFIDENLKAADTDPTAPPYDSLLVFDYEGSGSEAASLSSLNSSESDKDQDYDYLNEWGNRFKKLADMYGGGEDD

“E4.6 (mouse anti-human E-cadherin, IgG1) (antibody)” yielded a blocking of ilEL binding to 16E6.A5 monolayers in 1 mM Ca2+, Mg2+ and Mn2+ (FIG. 3A) of 55%; a blocking of ilEL binding to 16E6.A5 monolayers in the absence of Ca2+ and Mn2+ (FIG. 3B) of 0%.
